The values below come from the supplement of paper PMC5998384.

Series [1] relates to HeLa Kyoto. Description: solubility in G1/S (NP-40 vs SDS abundance) (log2 ratio); higher = more soluble. The conditions noted are these: cell cycle stage: G1/S.
Series [2] concerns HeLa Kyoto. As to the kind of experiment: thermal stability score vs G1/S (z-score of summed log2 fold changes over temperatures); higher = more thermally stable than in G1/S.
Series [3] has as its system HeLa Kyoto. As to the kind of experiment: solubility change mitosis vs G1/S (difference of NP-40 vs SDS log2 ratios) (log2 ratio difference); higher = more soluble in mitosis.
Series [4] relates to HeLa Kyoto. Description: melting temperature (median over replicates), in situ; higher = more thermally stable.
[5] abbreviates: cell cycle stage: early G1 (4.5 h after nocodazole release).
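Wherever melting temperature (median over replicates), in situ is given: HeLa Kyoto cells synchronized by double thymidine or nocodazole block, proteins quantified by TMT10plex mass spectrometry, three independent biological replicates.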
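Wherever solubility change mitosis vs G1/S (difference of NP-40 vs SDS log2 ratios) is given: synchronized HeLa Kyoto cells (double thymidine block for G1/S, nocodazole release for mitosis), protein amounts in NP-40 versus SDS lysates quantified by mass spectrometry, three biological replicates.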
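Wherever solubility in G1/S (NP-40 vs SDS abundance) is given: HeLa Kyoto cells arrested at G1/S by double thymidine block, proteins quantified by TMT10plex mass spectrometry in mild NP-40 versus SDS extracts, three biological replicates.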
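Wherever thermal stability score vs G1/S (z-score of summed log2 fold changes over temperatures) is given: synchronized HeLa Kyoto cells, proteins quantified by TMT10plex mass spectrometry, three biological replicates, mitosis taken 0.5 h after nocodazole release, G1/S directly after double thymidine block.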

Take “MFSSVAHLARANPFNTPHLQLVHDGLGDLRSSSPGPTGQPRRPRNLAAAAVEEQYSCDYGSGRFFILCGLGGIISCGTTHTALVPLDLVKCRMQVDPQKYKGIFNGFSVTLKEDGVRGLAKGWAPTFLGYSMQGLCKFGFYEVFKVLYSNMLGEENTYLWRTSLYLAASASAEFFADIALAPMEAAKVRIQTQPGYANTLRDAAPKMYKEEGLKAFYKGVAPLWMRQIPYTMMKFACFERTVEALYKFVVPKPRSECSKPEQLVVTFVAGYIAGVFCAIVSHPADSVVSVLNKEKGSSASLVLKRLGFKGVWKGLFARIIMIGTLTALQWFIYDSVKVYFRLPRPPPPEMPESLKKKLGLTQ [SLC25A3]”: in series [1], the “solubility in G1/S (log2)” value was -0.0671. Besides, the values for the thermal stability score in series [2] (setting [5]) and in series [2] (cell cycle stage: mitosis) were -1.42 and -3.39, respectively. Further, the “solubility change mitosis (log2)” value in series [3] was -0.0903. Moreover, the melting temperature in series [4] (cell cycle stage: G1/S) is 56.3 °C; in series [4] (cell cycle stage: mitosis), 56 °C.
“MFSVESLERAELCESLLTWIQTFNVDAPCQTVEDLTNGVVMAQVLQKIDPAYFDENWLNRIKTEVGDNWRLKISNLKKILKGILDYNHEILGQQINDFTLPDVNLIGEHSDAAELGRMLQLILGCAVNCEQKQEYIQAIMMMEESVQHVVMTAIQELMSKESPVSAGNDAYVDLDRQLKKTTEELNEALSAKEEIAQRCHELDMQVAALQEEKSSLLAENQVLMERLNQSDSIEDPNSPAGRRHLQLQTQLEQLQEETFRLEAAKDDYRIRCEELEKEISELRQQNDELTTLADEAQSLKDEIDVLRHSSDKVSKLEGQVESYKKKLEDLGDLRRQVKLLEEKNTMYMQNTVSLEEELRKANAARSQLETYKRQVVELQNRLSEESKKADKLDFEYKRLKEKVDSLQKEKDRLRTERDSLKETIEELRCVQAQEGQLTTQGLMPLGSQESSDSLAAEIVTPEIREKLIRLQHENKMLKLNQEGSDNEKIALLQSLLDDANLRKNELETENRLVNQRLLEVQSQVEELQKSLQDQGSKAEDSVLLKKKLEEHLEKLHEANNELQKKRAIIEDLEPRFNNSSLKIEELQEALRKKEEEMKQMEERYKKYLEKAKSVIRTLDPKQNQGAAPEIQALKNQLQERDRLFHSLEKEYEKTKSQREMEEKYIVSAWYNMGMTLHKKAAEDRLASTGSGQSFLARQRQATSSRRSYPGHVQPATAR [HOOK3]”: the “solubility in G1/S (log2)” value in series [1] came out at 0.753. The thermal stability score is 0.316 in series [2] (setting [5]) and 0.85 in series [2] (cell cycle stage: mitosis). In addition, the “solubility change mitosis (log2)” value in series [3] was -0.00542. Further, the results for the melting temperature in series [4] (cell cycle stage: G1/S) and in series [4] (cell cycle stage: mitosis) were 50.4 °C and 51 °C, respectively.
Take “MFTLAEVASLNDIQPTYRILKPWWDVFMDYLAVVMLMVAIFAGTMQLTKDQVVCLPVLPSPVNSKAHTPPGNAEVTTNIPKMEAATNQDQDGRTTNDISFGTSAVTPDIPLRATYPRTDFALPNQEAKKEKKDPTGRKTNLDFQQYVFINQMCYHLALPWYSKYFPYLALIHTIILMVSSNFWFKYPKTCSKVEHFVSILGKCFESPWTTKALSETACEDSEENKQRITGAQTLPKHVSTSSDEGSPSASTPMINKTGFKFSAEKPVIEVPSMTILDKKDGEQAKALFEKVRKFRAHVEDSDLIYKLYVVQTVIKTAKFIFILCYTANFVNAISFEHVCKPKVEHLIGYEVFECTHNMAYMLKKLLISYISIICVYGFICLYTLFWLFRIPLKEYSFEKVREESSFSDIPDVKNDFAFLLHMVDQYDQLYSKRFGVFLSEVSENKLREISLNHEWTFEKLRQHISRNAQDKQELHLFMLSGVPDAVFDLTDLDVLKLELIPEAKIPAKISQMTNLQELHLCHCPAKVEQTAFSFLRDHLRCLHVKFTDVAEIPAWVYLLKNLRELYLIGNLNSENNKMIGLESLRELRHLKILHVKSNLTKVPSNITDVAPHLTKLVIHNDGTKLLVLNSLKKMMNVAELELQNCELERIPHAIFSLSNLQELDLKSNNIRTIEEIISFQHLKRLTCLKLWHNKIVTIPPSITHVKNLESLYFSNNKLESLPVAVFSLQKLRCLDVSYNNISMIPIEIGLLQNLQHLHITGNKVDILPKQLFKCIKLRTLNLGQNCITSLPEKVGQLSQLTQLELKGNCLDRLPAQLGQCRMLKKSGLVVEDHLFDTLPLEVKEALNQDINIPFANGI [LRRC8D]”: the “solubility in G1/S (log2)” value in series [1] was found to be 0.141. Besides, the thermal stability score came to 0.491 in series [2] (setting [5]) and 0.22 in series [2] (cell cycle stage: mitosis). The “solubility change mitosis (log2)” value in series [3] is -0.126. For the same sequence, the melting temperature in series [4] (cell cycle stage: G1/S) was determined as 53.7 °C; in series [4] (cell cycle stage: mitosis), 53 °C.
“MFTSTGSSGLYKAPLSKSLLLVPSALSLLLALLLPHCQKLFVYDLHAVKNDFQIWRLICGRIICLDLKDTFCSSLLIYNFRIFERRYGSRKFASFLLGSWVLSALFDFLLIEAMQYFFGITAASNLPSGFLAPVFALFVPFYCSIPRVQVAQILGPLSITNKTLIYILGLQLFTSGSYIWIVAISGLMSGLCYDSKMFQVHQVLCIPSWMAKFFSWTLEPIFSSSEPTSEARIGMGATLDIQRQQRMELLDRQLMFSQFAQGRRQRQQQGGMINWNRLFPPLRQRQNVNYQGGRQSEPAAPPLEVSEEQVARLMEMGFSRGDALEALRASNNDLNVATNFLLQH [UBAC2]”: the “solubility in G1/S (log2)” value in series [1] was -0.173. Also, the thermal stability score in series [2] (setting [5]) stood at 0.579; in series [2] (cell cycle stage: mitosis) it was 1.39. In addition, in series [3], the “solubility change mitosis (log2)” value was -0.209. For the same sequence, the melting temperature stood at 50.4 °C in series [4] (cell cycle stage: G1/S) and 51.2 °C in series [4] (cell cycle stage: mitosis).
